According to the DeepSol protein solubility set:

experiment: soluble on expression in E. coli; label from the status in PepcDB or PDB records

| Sequence | soluble on expression in E. coli |
| --- | --- |
| MTHIAFGHYLHSKRWYTVQVLSKSEDAMSTQLDPTQLAIEFLRRDQSNLSPAQYLKRLKQLELEFADLLTLSSAELKEEIYFAWRLGVH | not soluble |
| MHHHHHHSSGVDLGTENLYFQSMNITKGGLVLFSANSNSSCMELSKKIAERLGVEMGKVQVYQEPNRETRVQIQESVRGKDVFIIQTVSKDVNTTIMELLIMVYACKTSCAKSIIGVIPYFPYSKQCKMRKRGSIVSKLLASMMCKAGLTHLITMDLHQKEIQGFFNIPVDNLRASPFLLQYIQEEIPDYRNAVIVAKSPASAKRAQSFAERLRLGIAVIHGEAQDAESDLVDGRHSPPMVRSVAAIHPSLEIPMLIPKEKPPITVVGDVGGRIAIIVDDIIDDVDSFLAAAETLKERGAYKIFVMATHGLLSSDAPRRIEESAIDEVVVTNTIPHEVQKLQCPKIKTVDISMILSEAIRRIHNGESMSYLFRNIGLDD | soluble |
| MGSDKIHHHHHHAQTYQQLSEKAIEYIEMDSLSKAEELLLQALKLEPKNAKNAMLFSNLGLVQRRLGEYDKALESYSFALNFAPLAVPILLDRAAINLEMGNTDRAYTDYCQVLDEDKQNKEALLMRAYIYVLRRDYPAARIDYNRLLEIDPQSYSGRLGLATLEQKEGKFKEALEILNKMITATPEDATLYIARADVEREMKHEDLALVDLEEAIRLNPSSADAYLLRGNIYLTQKKKALAKMDFEKAISLGIPPADLHEQLKQCK | not soluble |
| MSYTAEMIIRLREEKKEMRNRDFAISIGISEAELIAAYCTIGKAKRLKTDIAVLLENAPQLGTVMALTRNEHAVHEITGCFEKIVQNQHVLLTLGEIDLRIFAKQWKFCFEYEAIVLGKPTKSLHFFDQNGVAIFKLYSKDTTNMAEWNKLVDKLLHEDQSPVLDIPPKAIPNKRDIVELNVEEFRDRWRKMTDVHQLHGIISELKINRHDAVKYVGNEFAHELKREAIEIMLNQVAQQEVPIMCFVGNKGCIQIFSGQIKNIKQMGPWLNVLDKKFHLHLLIPGIKNVWCVRKPTSDGHVTSLEVFDENDEMIIQFFGMRKEGQKEREDWRSLLNSLPQSHAVAVA | not soluble |
| MTSDTFPQLPLSYWIESTQFPTFPRLSENIKTKVAIIGAGITGITTAYLLAKEGIDVVLIDSGRILNGTTGHTTAKVTAQHDLIYDELINHFGVEKARLYYESNNQALQFINKTVQTYKIDCNFSNEDSYLYTTTDNGLRNLSKEYEAYQKLNIPCDYVQSLSIPIPVQSALVMKNQAQFHPLLYLKTLLEKFVEMGGKVYEQTTAMDVEKGDYSQIITKEGHHITCEYVVSCSHFPFYDANSFFFTRMYAERSYALAIKAKTEYPGGMYLSIDDPKRSLRYITNNGEKLILIGGESHKTGQGINTMLHYEALYSFAEATFGIDEVSYRWSAQDLITLDKLPYIGHINERNPNIFVATGYRKWGMTTGTAAAHLLKDSILKVHSPYKELYAPSRFHANPDIKTFLSQNIDVAKHLIAGKIETALRKPEDLEVGEGSVVHVNGKRAGAYKDKEGKLHIVDTTCTHLGCEVEWNNGDCTWDCPCHGSRFSIEGDVLEGPADQPLKRVDNELEHHHHHH | soluble |
| MGHHHHHHHHHHSSGHIDDDDLHMDMHSGTFNPQDFAWQGLTLTPAAAIHIRELVAKQPGMVGVRLGVKQTGCAGFGYVLDSVSEPDKDDLLFEHDGAKLFVPLQAMPFIDGTEVDFVREGLNQIFKFHNPKAQNECGCGESFGV | soluble |
| HHHHHHMAEKKQWHETLHDQFGQYFAVDNVLYHEKTDHQDLIIFENAAFGRVMALDGVVQTTERDEFIYHEMMTHVPLLAHGHAKHVLIIGGGDGAMLREVTRHKNVESITMVEIDAGVVSFCRQYLPNHNAGSYDDPRFKLVIDDGVNFVNQTSQTFDVIISDCTDPIGPGESLFTSAFYEGCKRCLNPGGIFVAQNGVCFLQQEEAIDSHRKLSHYFSDVGFYQAAIPTYYGGIMTFAWATDNDALRHLSTEIIQARFLASGLKCRYYNPAIHTAAFALPQYLQDALASQPS | soluble |
| KTKLNITMEEDTEVLDEVVVVGYGAQKKESVVGAISQVSSKELLKSPAANISQAIAGKISGVITSQTSGAPGADDMKIYIRGRASFAGDNQPLILVDGVEREFSQIAPDDIESISTLKDASATAVYGVRGANGVMLITTKRGKEQK | not soluble |
| MRTLRIAQYSVLTVGFAIYMYRLIEEIPIDIRNLNSDSLEGIINSDELCDVTVSNRNRGLLVRNDSLDLDILKAKFTTFFSKR | not soluble |
| MGSDKIHHHHHHMKTDTEWLLCDFHVHTNMSDGHLPLGEVVDLFGKHGVDVVSITDHIVDRRTLEQRKRNGEPLGAITEDKFQDYLKRLWREQKRAWEEYGMILIPGVEITNNTDLYHIVAVDVKEYVDPSLPVEEIVEKLKEQNALVIAAHPDRKKQDEEHLSWYLWANMERFKDTFDAWEIANRDDLFNSVGVKKYRYVANSDFHELWHVYSWKTLVKSEKNIEAIKEAIRKNTDVAIYLMRKNRLSSLSDVI | soluble |
| MEDRREALISKLMNMLVENGFSVSGTGFQPVATFDIVARRDVERYILKVLYNIDTLKQSTAYQLIKLAKLLRATAAIIGERTGNGQLEDGVVYYRHGVPISSVNTFESYLNGERPYIYSGPGGFYVRINGELLRERRNELNLSIGNISSYLGVSRRSVSLYENGSAATIDIFIRLRNILKADIVDHIDLFRINSTEINFEEKISDEYIARIIWLLQKYGLDTRPIFKVPFDIVAKDSDEISLIAALIGDAPEPERVRILKKISDVFEDDAFLVSKSNTYRESIGGCAVLTISDLESIEDKDALIGKIEKRAK | not soluble |
| MKEACSSSSHVPVSDSKYILKSELLSLLKTYNCYHEGRSFQLRHREEEGTLIIEGLLNIAWGLRRPIRLQMQDDRERVHLPSATWVPERLSYLQKEASPQDSKVPTEEPGTQPANKAEVSGDSSGALEGEEEEVPQLMRTKSDASCIIQRRSKSRAPSEAQKIRRHRFSINGHFYNHKVKSPSALSWALKLRVQELFPSTEERAPNIQHSSHSSIR | soluble |
| LSDKLMERLKERAEGIFVSGPPGSGKSTFVAALAEFYRSQGKIVKTMESPRDLQVSKEITQYAPLEGDMEKTCDILLLVRPDYTIYDEVRKTRDFEIFADMRMAGVGMVGVVHASKPIDAIQRLIGRVELGVIPQVVDTVIFIKDGKIQKVYEIDFTVKVPYG | not soluble |
| MKTVLLTGFDPFGGESINPAWEVAKSLHEKTIGEYKIISKQVPTVFHKSISVLKEYIEELAPEFIICIGQAGGRPDITIERVAINIDDARIADNEGNQPVDVPVVEEGPAAYWSTLPMKAIVKKLQEEGIPASVSQTAGTFVCNHLFYGLMHELEKHDTKMKGGFIHIPFLPEQASNYPGQPSMSLSTIRKGIELAVEVTTTVEVDIVEVGGTTH | soluble |
| MYKNNFENYMNLDIYKDIEEIRAALEHLGAKKILLQLPDGLKPEVYHYFNYLSANYNVVISSSPVYGACDIGPSSIYDKVDAIVQIGHSPMPNVKYPKPTIFVEHHYNARISNIDTSLLEGKYDRIGLLFSVQYKEVADEVRKIFENKGFTVIIGKKDGRMAYDGQVLGCNFSSVHSISYDVDAYVLVSTGQFHGIGAQLSTEREVFVLDLNDYKLHSMKDEADKFIRKRYAQIFRAKEARKICIISDTRIGQRRERLARIILRQVQQMGLEGILAVTDNISNQDLENMRCDAVVYTGCPRVPIDDQQKFTMPLLTPAEFEMGFVKNSNRYVLDEIVSVDDPADKLEHHHHHH | not soluble |
| MGSDKIHHHHHHMSLTRLNIEAFRNIQSAQLIPAPGINLIYGQNGSGKTSILEAIYFLGMGRSFRSHLSQRVINNDDDKLTLFATLNLARGDSKIGLRRFRSGETEVRIDGEKVKRLSTLAETLPIQVITPESFSLLFEGPKSRRQFIDWGAFHADPQFYGAWTNVRRVLKQRNQLLRNGSAYSNIQFWDQEFVRYAEQVTEIRNHYVDSLNELLKGIIGEFLPSVDVKVSFTRGWDSKTDFAELLENQYSRDLATGHTVSGPHKADLRLRVGTLPAQDALSRGQLKLLVCALRIAQGKLLKQQIDKHSIYLVDDLPSELDAQHRQLLLKQLTDTGAQVFVTAIDPAAIVDSLHTPPSRMFHVEQGRVTVIE | not soluble |
| MKYNTMNNDEIILSLCARLKETRLSLSMTQQQLADRAHVGIATIKRIEKGGGLNLDTLISLLRALDKLHNLDAVLFESELRNFHESYEGGEGSGRLQVRQQAADLNNKSSAPQSEEVNYSAALENSLCW | not soluble |
| MTASLMNTGKKNPFRDTQQGEYGNGDRNDWVMQASCRNGDPDALFVRGAEQRRAAAICRQCPVMIQCRADALDNKVEFGVWGGLTERQRRAILRKNPHVDSWEQFFAQGGELLGM | not soluble |
| MGSDKIHHHHHHMSLLINLSFILTKPTGTTTYAFNLLPHLKPLQPTLLTSQYFPNYNSYQTPVNQTSEQGIKGHLRRLRWTQFKLPKIYNNLKSSLLFSPLPEAPLYTNCRFVITSFDMIPLRFPKRFSPLIPYHRYYTPQVLKQAQHIICISQTTAEDITNFYGIPANKITPILLAYDRTHFRPLNLATRNYFLYIGRQEPYKNIQRLLAAFAALPNHKDYELWLVGPSDLRYTPTLKTQVEELSITNQVKFLDYVPYSELPKIINEAIALVFPSLWEGFGLPVLEAMACGTPVITSNLSSLPEVAGDAAILIDPYNTVEITEAMQVIATNSALRSHLSSQGIIHCQQFSWEKTAKATAEVLSRYM | not soluble |
| MSLNNTPRYPQRVRNDLRFRELTVLRVERISAGFQRIVLGGEALDGFTSRGFDDHSKLFFPQPDAHFVPPTVTEEGIVWPEGPRPPSRDYTPLYDELRHELAIDFFIHDGGVASGWAMQAQPGDKLTVAGPRGSLVVPEDYAYQLYVCDESGMPALRRRLETLSKLAVKPQVSALVSVRDNACQDYLAHLDGFNIEWLAHDEQAVDARLAQMQIPADDYFIWITGEGKVVKNLSRRFEAEQYDPQRVRAAAYWHAKEGGSHHHHHH | soluble |
| MGSDKIHHHHHHMQQNDKKLFVLDTNVLLHEPLAIYSFKEHDVIIPMTVLEELDSIKDRKRDVSRDARVAIRALEDILGGPTTPEQILKGVALPTREEHSQVSGHLSIFPDHQVEFIIGSLPGDNNDNRIINTALHLQKIHFPRTVVLVTKDINMRLKAKGAGIERVEDYRSDQLIDDVRFLAKGFYQFSGDFWQNVDKVSTERRGLHTVHQVPLEHLGNENFYLNQYLIDDSSDFCGRVVSKTDKHLEMIDRGRDRLLHHEAWGINPKNIYQGMALDALLDPDIELIILTGPAGCGKTLLAMAAALELVVERKLYDKIIVTRNTPEIAESIGFLPGSEEEKMTPWLAAITDTLEVLHKNDVNPAGSVNYIMEKANIQFKSINFMRGRSIQNSVVILDECQNLTASQIKTMITRMGEGTKLICSGNLAQIDSTYLTAVTSGLTYMVERFKDFEGSANIYLNGVVRSRLAEFAEEHL | not soluble |
| MKLALFDLDNTLLAGDSDFQWAQFLIEQQVLDREVYEARNIEFYEQYKAGTLDIHEFLDFQLKPLSRHPREQLNTWRSDFIERKIAPLIAPGARELIARHQAEKDLCIIITATNSFVTAPIARMLGIDHLIATEPEQKNGEFTGRVTGIPSFQAGKITRLEQWLDAHNLTWLSFLQSWFYSDSLNDLPLLKRVTHPVAVDPDATLHEHAKKSGWPIISLRQ | not soluble |
| LEMKGKRMSVTAVMRELEKEENLYRRSGGGITLSGGEPLAQPEFARELLKACKAKGWHTAIETSGFTTKAVIDEVFPYVDLALTDIKAIDPEIHERNTGVNNRVILENLLRISFLTKVVVRIPVIPGVNDNSQEIHNIAEFARLMQNVDTIHLLPYHSFGENKYNLLGRQYPMGDTKSIEESQMAELKAMVESLGFNCHIGG | not soluble |
